Laboratory results published in PMC11528428.

Target: CD3ζ subunit of the T cell receptor (TCR) in nonactivated Jurkat T cells (human (endogenous in Jurkat)) (UniProt P20963)
Assay: single-molecule localization microscopy (DNA-PAINT with qPAINT counting); nonactivated Jurkat T cells, TIRF; stepwise model: Ka,j of a monomer joining a cluster of j-1 proteins, from the distribution of cluster sizes, j = 2 to 8, average of eight cells

log Ka,j (stepwise association of a monomer to a cluster, j = 2-8) (log, μm^2 scale): -1.4
Substance: CD3ζ subunit of the T cell receptor (TCR) in nonactivated Jurkat T cells (from UniProt P20963-1 22-164)
